Source: patent US20250171562A1
Where a chain is given by its changes, count along the chain named. In names and notes the source's numbering stands.

B1: CIgG4B3A1(G4S)2 (Fc fusion)
chain 1: GPPCPPCPAPEFLGGPSVFLFPPKPKDTLMISRTPEVTCVVVDVSQEDPEVQFNWYVDGVEVHNAKTKPREEQFNSTYRVVSVLTVLHQDWLNGKEYKCKVSNKGLPSSIEKTISKAKGQPREPQVYTLPPCQEEMTKNQVSLWCLVKGFYPSDIAVEWESNGQPENNYKTTPPVLDSDGSFFLYSRLTVDKSRWQEGNVFSCSVMHEALHNHYTQKSLSLSLGKGGGGSGGGGSDVQLQESGGGLVQAGGSLRLSCAASGFIFRLAGMSWVRQAPGKGFEWVSGITMDGSTTNYADSVKGRFTISRDNSKNRLYLQMNSLKPEDTAVYYCARGAKGGYNDPRGQGTQVTVS
chain 2: GPPCPPCPAPEFLGGPSVFLFPPKPKDTLMISRTPEVTCVVVDVSQEDPEVQFNWYVDGVEVHNAKTKPREEQFNSTYRVVSVLTVLHQDWLNGKEYKCKVSNKGLPSSIEKTISKAKGQPREPQVCTLPPSQEEMTKNQVSLSCAVKGFYPSDIAVEWESNGQPENNYKTTPPVLDSDGSFFLVSRLTVDKSRWQEGNVFSCSVMHEALHNHYTQKSLSLSLGKGGGGSGGGGSEVQLLESGGGLVQPGGSLRLSCAASGFTFGNYDMAWVRQAPGKRPEWVSSIDTGGDITHYADSVKGRFTISRDNAKNTLYLQMNSLRPEDTAVYWCATDEEYALGPNEFDYYGQGTLVTVSS
B2: CIgG4B3A1(G4S)1 (Fc fusion)
chain 1: GPPCPPCPAPEFLGGPSVFLFPPKPKDTLMISRTPEVTCVVVDVSQEDPEVQFNWYVDGVEVHNAKTKPREEQFNSTYRVVSVLTVLHQDWLNGKEYKCKVSNKGLPSSIEKTISKAKGQPREPQVYTLPPCQEEMTKNQVSLWCLVKGFYPSDIAVEWESNGQPENNYKTTPPVLDSDGSFFLYSRLTVDKSRWQEGNVFSCSVMHEALHNHYTQKSLSLSLGKGGGGSDVQLQESGGGLVQAGGSLRLSCAASGFIFRLAGMSWVRQAPGKGFEWVSGITMDGSTTNYADSVKGRFTISRDNSKNRLYLQMNSLKPEDTAVYYCARGAKGGYNDPRGQGTQVTVS
chain 2: GPPCPPCPAPEFLGGPSVFLFPPKPKDTLMISRTPEVTCVVVDVSQEDPEVQFNWYVDGVEVHNAKTKPREEQFNSTYRVVSVLTVLHQDWLNGKEYKCKVSNKGLPSSIEKTISKAKGQPREPQVCTLPPSQEEMTKNQVSLSCAVKGFYPSDIAVEWESNGQPENNYKTTPPVLDSDGSFFLVSRLTVDKSRWQEGNVFSCSVMHEALHNHYTQKSLSLSLGKGGGGSEVQLLESGGGLVQPGGSLRLSCAASGFTFGNYDMAWVRQAPGKRPEWVSSIDTGGDITHYADSVKGRFTISRDNAKNTLYLQMNSLRPEDTAVYWCATDEEYALGPNEFDYYGQGTLVTVSS
B3: CIgE4A1A1(GS3) (Fc fusion)
chain 1: GPPCPPCPAPEFLGGPSVFLFPPKPKDTLMISRTPEVTCVVVDVSQEDPEVQFNWYVDGVEVHNAKTKPREEQFNSTYRVVSVLTVLHQDWLNGKEYKCKVSNKGLPSSIEKTISKAKGQPREPQVYTLPPCQEEMTKNQVSLWCLVKGFYPSDIAVEWESNGQPENNYKTTPPVLDSDGSFFLYSRLTVDKSRWQEGNVFSCSVMHEALHNHYTQKSLSLSLGKGGGGSGGGGSGGGGSEVQLLESGGGLVQPGGSLRLSCAASGFTFGNYDMAWVRQAPGKRPEWVSSIDTGGDITHYADSVKGRFTISRDNAKNTLYLQMNSLRPEDTAVYWCATDEEYALGPNEFDYYGQGTLVTVSS
chain 2: B3 chain 1 with Y127C, C132S, W144S, L146A, Y185V
B4: CIgG4B3A1(G4S)3 (Fc fusion)
chain 1: GPPCPPCPAPEFLGGPSVFLFPPKPKDTLMISRTPEVTCVVVDVSQEDPEVQFNWYVDGVEVHNAKTKPREEQFNSTYRVVSVLTVLHQDWLNGKEYKCKVSNKGLPSSIEKTISKAKGQPREPQVYTLPPCQEEMTKNQVSLWCLVKGFYPSDIAVEWESNGQPENNYKTTPPVLDSDGSFFLYSRLTVDKSRWQEGNVFSCSVMHEALHNHYTQKSLSLSLGKGGGGSGGGGSGGGGSDVQLQESGGGLVQAGGSLRLSCAASGFIFRLAGMSWVRQAPGKGFEWVSGITMDGSTTNYADSVKGRFTISRDNSKNRLYLQMNSLKPEDTAVYYCARGAKGGYNDPRGQGTQVTVS
chain 2: B3 chain 1 with Y127C, C132S, W144S, L146A, Y185V
B5: NIgG4B3A1(RS) (Fc fusion)
chain 1: DVQLQESGGGLVQAGGSLRLSCAASGFIFRLAGMSWVRQAPGKGFEWVSGITMDGSTTNYADSVKGRFTISRDNSKNRLYLQMNSLKPEDTAVYYCARGAKGGYNDPRGQGTQVTVSRSGPPCPPCPAPEFLGGPSVFLFPPKPKDTLMISRTPEVTCVVVDVSQEDPEVQFNWYVDGVEVHNAKTKPREEQFNSTYRVVSVLTVLHQDWLNGKEYKCKVSNKGLPSSIEKTISKAKGQPREPQVYTLPPCQEEMTKNQVSLWCLVKGFYPSDIAVEWESNGQPENNYKTTPPVLDSDGSFFLYSRLTVDKSRWQEGNVFSCSVMHEALHNHYTQKSLSLSLGK
chain 2: EVQLLESGGGLVQPGGSLRLSCAASGFTFGNYDMAWVRQAPGKRPEWVSSIDTGGDITHYADSVKGRFTISRDNAKNTLYLQMNSLRPEDTAVYWCATDEEYALGPNEFDYYGQGTLVTVSSRSGPPCPPCPAPEFLGGPSVFLFPPKPKDTLMISRTPEVTCVVVDVSQEDPEVQFNWYVDGVEVHNAKTKPREEQFNSTYRVVSVLTVLHQDWLNGKEYKCKVSNKGLPSSIEKTISKAKGQPREPQVCTLPPSQEEMTKNQVSLSCAVKGFYPSDIAVEWESNGQPENNYKTTPPVLDSDGSFFLVSRLTVDKSRWQEGNVFSCSVMHEALHNHYTQKSLSLSLGK
B6: CIgG4B3A1(RS) (Fc fusion)
chain 1: GPPCPPCPAPEFLGGPSVFLFPPKPKDTLMISRTPEVTCVVVDVSQEDPEVQFNWYVDGVEVHNAKTKPREEQFNSTYRVVSVLTVLHQDWLNGKEYKCKVSNKGLPSSIEKTISKAKGQPREPQVYTLPPCQEEMTKNQVSLWCLVKGFYPSDIAVEWESNGQPENNYKTTPPVLDSDGSFFLYSRLTVDKSRWQEGNVFSCSVMHEALHNHYTQKSLSLSLGKRSDVQLQESGGGLVQAGGSLRLSCAASGFIFRLAGMSWVRQAPGKGFEWVSGITMDGSTTNYADSVKGRFTISRDNSKNRLYLQMNSLKPEDTAVYYCARGAKGGYNDPRGQGTQVTVS
chain 2: GPPCPPCPAPEFLGGPSVFLFPPKPKDTLMISRTPEVTCVVVDVSQEDPEVQFNWYVDGVEVHNAKTKPREEQFNSTYRVVSVLTVLHQDWLNGKEYKCKVSNKGLPSSIEKTISKAKGQPREPQVCTLPPSQEEMTKNQVSLSCAVKGFYPSDIAVEWESNGQPENNYKTTPPVLDSDGSFFLVSRLTVDKSRWQEGNVFSCSVMHEALHNHYTQKSLSLSLGKRSEVQLLESGGGLVQPGGSLRLSCAASGFTFGNYDMAWVRQAPGKRPEWVSSIDTGGDITHYADSVKGRFTISRDNAKNTLYLQMNSLRPEDTAVYWCATDEEYALGPNEFDYYGQGTLVTVSS

Molecular target: mixture of three Der p 2 specific recombinant human IgE clones H10, H12, P4E (human) (UniProt P01854)
Sequence (P01854 other isoform, or with tags, fused parts or gaps): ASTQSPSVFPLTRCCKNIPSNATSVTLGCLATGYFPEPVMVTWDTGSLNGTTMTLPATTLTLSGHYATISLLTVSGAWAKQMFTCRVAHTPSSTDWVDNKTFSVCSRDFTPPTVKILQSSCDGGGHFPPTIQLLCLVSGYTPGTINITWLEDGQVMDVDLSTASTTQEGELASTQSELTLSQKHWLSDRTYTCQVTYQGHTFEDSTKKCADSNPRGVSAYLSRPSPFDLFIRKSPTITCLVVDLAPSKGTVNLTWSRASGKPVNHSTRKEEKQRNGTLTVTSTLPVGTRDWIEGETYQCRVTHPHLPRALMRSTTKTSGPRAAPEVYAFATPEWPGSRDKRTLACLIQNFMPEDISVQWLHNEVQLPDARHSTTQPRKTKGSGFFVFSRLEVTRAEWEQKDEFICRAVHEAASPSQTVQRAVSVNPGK
Experiment: RBL-SX38 IgE displacement, FACS

Point of comparison: B3, Max effect/effect 1 µM 10%. Against it:
- B1 — higher, 28%
- B2 — higher, 12%
- B4 — higher, 76%
- B5 — higher, 94%
- B6 — lower, 1%
